Laboratory results from patent US7588931B2, “High arachidonic acid producing strains of Yarrowia lipolytica” (E. I. du Pont de Nemours and Company, priority 2004, dated 2009).

B1: FBAIN: fructose-bisphosphate aldolase + intron promoter, SEQ ID NO:162 (nucleic acid, listed as Yarrowia lipolytica)
DNA: AAATTGCCCCGGAGAAGACGGCCAGGCCGCCTAGATGACAAATTCAACAACTCACAGCTGACTTTCTGCCATTGCCACTAGGGGGGGGCCTTTTTATATGGCCAAGCCAAGCTCTCCACGTCGGTTGGGCTGCACCCAACAATAAATGGGTAGGGTTGCACCAACAAAGGGATGGGATGGGGGGTAGAAGATACGAGGATAACGGGGCTCAATGGCACAAATAAGAACGAATACTGCCATTAAGACTCGTGATCCAGCGACTGACACCATTGCATCATCTAAGGGCCTCAAAACTACCTCGGAACTGCTGCGCTGATCTGGACACCACAGAGGTTCCGAGCACTTTAGGTTGCACCAAATGTCCCACCAGGTGCAGGCAGAAAACGCTGGAACAGCGTGTACAGTTTGTCTTAACAAAAAGTGAGGGCGCTGAGGTCGAGCAGGGTGGTGTGACTTGTTATAGCCTTTAGAGCTGCGAAAGCGCGTATGGATTTGGCTCATCAGGCCAGATTGAGGGTCTGTGGACACATGTCATGTTAGTGTACTTCAATCGCCCCCTGGATATAGCCCCGACAATAGGCCGTGGCCTCATTTTTTTGCCTTCCGCACATTTCCATTGCTCGGTACCCACACCTTGCTTCTCCTGCACTTGCCAACCTTAATACTGGTTTACATTGACCAACATCTTACAAGCGGGGGGCTTGTCTAGGGTATATATAAACAGTGGCTCTCCCAATCGGTTGCCAGTCTCTTTTTTCCTTTCTTTCCCCACAGATTCGAAATCTAAACTACACATCACACAATGCCTGTTACTGACGTCCTTAAGCGAAAGTCCGGTGTCATCGTCGGCGACGATGTCCGAGCCGTGAGTATCCACGACAAGATCAGTGTCGAGACGACGCGTTTTGTGTAATGACACAATCCGAAAGTCGCTAGCAACACACACTCTCTACACAAACTAACCCAGCTCTCC
modifications: misc_feature: Promoter FBAIN
B2: FBA: Y. lipolytica fructose-bisphosphate aldolase promoter, SEQ ID NO:161 (nucleic acid, listed as Yarrowia lipolytica)
DNA: TAAACAGTGTACGCAGTACTATAGAGGAACAATTGCCCCGGAGAAGACGGCCAGGCCGCCTAGATGACAAATTCAACAACTCACAGCTGACTTTCTGCCATTGCCACTAGGGGGGGCCTTTTTATATGGCCAAGCCAAGCTCTCCACGTCGGTTGGGCTGCACCCAACAATAAATGGGTAGGGTTGCACCAACAAAGGGATGGGATGGGGGGTAGAAGATACGAGGATAACGGGGCTCAATGGCACAAATAAGAACGAATACTGCCATTAAGACTCGTGATCCAGCGACTGACACCATTGCATCATCTAAGGGCCTCAAAACTACCTCGGAACTGCTGCGCTGATCTGGACACCACAGAGGTTCCGAGCACTTTAGGTTGCACCAAATGTCCCACCAGGTGCAGGCAGAAAACGCTGGAACAGCGTGTACAGTTTGTCTTAACAAAAAGTGAGGGCGCTGAGGTCGAGCAGGGTGGTGTGACTTGTTATAGCCTTTAGAGCTGCGAAAGCGCGTATGGATTTGGCTCATCAGGCCAGATTGAGGGTCTGTGGACACATGTCATGTTAGTGTACTTCAATCGCCCCCTGGATATAGCCCCGACAATAGGCCGTGGCCTCATTTTTTTGCCTTCCGCACATTTCCATTGCTCGGTACCCACACCTTGCTTCTCCTGCACTTGCCAACCTTAATACTGGTTTACATTGACCAACATCTTACAAGCGGGGGGCTTGTCTAGGGTATATATAAACAGTGGCTCTCCCAATCGGTTGCCAGTCTCTTTTTTCCTTTCTTTCCCCACAGATTCGAAATCTAAACTACACATCACACAATGCCTGTTACTGACGTCCTTAAGCGAAAGTCCGGTGTCATCGTCGGCGACGATGTCCGAGCCGTGAGTATCCACGACAAGATCAGTGTCGAGACGACGCGTTTTGTGTAATGACACAATCCGAAAGTCGCTAGCAACACACACTCTCTACACAAACTAACCCAGCTCTCC
modifications: misc_feature: Promoter FBA

Tested on: GUS mRNA
Experiment: Comparative analysis of promoters by quantitative (Real Time) PCR of GUS mRNA
Type: cell-based, Yarrowia lipolytica
Details: for transcription activity relative to the TEF promoter: after 24 hrs in HGM, ATCC #76982 strains
Protocol: The transcriptional activities of the TEF, GPD, GPDIN, FBA and FBAIN promoters were determined in Y. lipolytica containing the pY5-30, PYZGDG, pDMW222, pDMW212 and pDMW214 constructs by quantitative PCR analyses. This required isolation of RNA and real time RT-PCR.
More specifically, Y. lipolytica ATCC #76982 strains containing pY5-30, PYZGDG, pDMW222, pDMW212 and pDMW214 were grown from single colonies in 6 mL of MM in 25 mL Erlenmeyer flasks for 16 hrs at 30° C. Each of the 6 mL starter cultures was then added to individual 500 mL flasks containing 140 mL HGM and incubated at 30° C. for 4 days. In each interval of 24 hrs, 1 mL of each culture was removed from each flask to measure the optical density, 27 mL was removed and used for a fluorometric GUS assay (as described above), and two aliquots of 1.5 mL were removed for RNA isolation. The culture for RNA isolation was centrifuged to produce a cell pellet.
The RNA was isolated from Yarrowia strains according to the modified Qiagen RNeasy mini protocol (Qiagen, San Diego, Calif.). Briefly, at each time point for each sample, 340 μL of Qiagen's buffer RLT was used to resuspend each of the two cell pellets. The buffer RLT/cell suspension mixture from each of the two tubes was combined in a bead beating tube (Bio101, San Diego, Calif.). About 500 μL of […] glass beads was added to the tube and the cells were disrupted by bead beating 2 min at setting 5 (BioPulverizer, Bio101 Company, San Diego, Calif.). The disrupted cells were then pelleted by centrifugation at 14,000 rpm for 1 min and 350 μl of the supernatent was transferred to a new microcentrifuge tube. Ethanol (350 μL of 70%) was added to each homogenized lysate. After gentle mixing, the entire sample was added to a RNeasy mini column in a 2 mL collection tube. The sample was centrifuged for 15 sec at 10,000 rpm. Buffer RW1 (350 μL) was added to the RNeasy mini column and the column was centrifuged for 15 sec at 10,000 rpm to wash the cells. The eluate was discarded. Qiagen's DNasel stock solution (10 μL) was added to 70 μl of Buffer RDD and gently mixed. This entire DNase solution was added to the RNeasy mini column and incubated at room temperature for 15 min. After the incubation step, 350 μL of Buffer RW1 was added to the mini column and the column was centrifuged for 15 sec at 10,000 rpm. The column was washed twice with 700 μL […]. RNase-free water (50 μL) was added to the column. The column was centrifuged for 1 min at 10,000 rpm to elute the RNA.
A two-step RT-PCR protocol was used, wherein total Yarrowia RNA was first converted to cDNA and then cDNA was analyzed using Real Time PCR. The conversion to cDNA was performed using Applied Biosystems' High Capacity cDNA Archive Kit (PN#4322171; Foster City, Calif.) and Molecular Biology Grade water from MediaTech, Inc. (PN# 46-000-Con; Holly Hill, Fla.). Total RNA from Yarrowia (100 ng) was converted to cDNA by combining it with 10 μl of RT buffer, 4 μl of 25×dNTPs, 10 μl 10× Random Hexamer primers, 5 μl Multiscribe Reverse Transcriptase and 0.005 μl RNase Inhibitor, and brought to a total reaction volume of 100 μl with water. The reactions were incubated in a thermocycler for 10 min at 25° C. followed by 2 hrs at 37° C. The cDNA was stored at −20° C. prior to Real Time analysis.
Real Time analysis was performed using the SYBR Green PCR Master Mix from Applied Biosystems (PN# 4309155). The Reverse Transcription reaction (2 μl) was added to 10 μl of 2×SYBR PCR Mix, 0.2 μl of 100 μM Forward and Reverse primers for either URA (i.e., primers YL-URA-16F and YL-URA-78R [SEQ ID NOs:183 and 184]) or GUS (i.e., primers GUS-767F and GUS-891R [SEQ ID NO:185 and 186]) and 7.2 μl water. The reactions were thermocycled for 10 min at 95° C. followed by 40 cycles of 95° C. for 5 sec and 60° C. for 1 min in an ABI 7900 Sequence Detection System instrument. Real time fluorescence data was collected during the 60° C. extension during each cycle. […]

Molecule	transcription activity relative to the TEF promoter	transcriptional activity relative to the TEF promoter (final day of the 4 day experiment in HGM)
B1	~6 times	about 3 times
B2	about 3.3 times	
